# Literature values, collected in article PMC2846234.
# Target: beta sliding clamp (Escherichia coli) (UniProt P0A988)
# UniProt P0A988, sequence (P0A988 whole entry): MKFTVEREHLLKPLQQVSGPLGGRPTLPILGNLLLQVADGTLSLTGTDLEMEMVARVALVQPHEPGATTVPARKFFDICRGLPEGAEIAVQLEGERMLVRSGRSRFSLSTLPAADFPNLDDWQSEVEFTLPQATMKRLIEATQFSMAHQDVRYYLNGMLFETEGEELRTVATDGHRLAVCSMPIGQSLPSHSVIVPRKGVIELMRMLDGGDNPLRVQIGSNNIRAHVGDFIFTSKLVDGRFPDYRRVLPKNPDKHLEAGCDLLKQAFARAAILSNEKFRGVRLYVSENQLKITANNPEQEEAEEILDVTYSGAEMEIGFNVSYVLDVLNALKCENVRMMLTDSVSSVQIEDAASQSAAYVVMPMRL
substance,measurement,value
DNA polymerase II (from UniProt P21189),Kd,32 nM
